Here are results for five molecules from patent US11788108B2, “CMP-dependent sialidase activity” (Roche Diagnostics Operations, Inc., priority 2014, dated 2023).

A value given as a limit tells only on which side of the number the result lay.

Series [1] concerns the target T1, α-2,6-sialyltransferase from rat liver (Rattus norvegicus, UniProt P13721).
T1 construct: host or cells: rat liver
T1 sequence (P13721 1-403): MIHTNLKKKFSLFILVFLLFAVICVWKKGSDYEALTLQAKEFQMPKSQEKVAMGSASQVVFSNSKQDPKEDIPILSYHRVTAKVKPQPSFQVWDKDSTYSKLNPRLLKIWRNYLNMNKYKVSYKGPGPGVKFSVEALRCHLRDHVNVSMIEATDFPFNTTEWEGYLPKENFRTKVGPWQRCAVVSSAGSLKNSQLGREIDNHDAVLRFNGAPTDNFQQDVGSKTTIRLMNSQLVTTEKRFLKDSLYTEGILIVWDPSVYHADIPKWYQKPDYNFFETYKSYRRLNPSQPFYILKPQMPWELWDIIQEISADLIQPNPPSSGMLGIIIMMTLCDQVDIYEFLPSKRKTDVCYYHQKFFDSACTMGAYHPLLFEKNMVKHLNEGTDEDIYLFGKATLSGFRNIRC
Particulars: each inhibitor at 0.25 mM; cited from earlier work.

Another series deals with T2, Δ89 hST6Gal-I (Homo sapiens, UniProt P15907).
T2 construct: Erythropoietin signal peptide (Epo) (N, cleaved yes); AP spacer (N, cleaved yes); made in house; host or cells: HEK 293 cells (transient expression, secreted)
T2 sequence (P15907 90-406): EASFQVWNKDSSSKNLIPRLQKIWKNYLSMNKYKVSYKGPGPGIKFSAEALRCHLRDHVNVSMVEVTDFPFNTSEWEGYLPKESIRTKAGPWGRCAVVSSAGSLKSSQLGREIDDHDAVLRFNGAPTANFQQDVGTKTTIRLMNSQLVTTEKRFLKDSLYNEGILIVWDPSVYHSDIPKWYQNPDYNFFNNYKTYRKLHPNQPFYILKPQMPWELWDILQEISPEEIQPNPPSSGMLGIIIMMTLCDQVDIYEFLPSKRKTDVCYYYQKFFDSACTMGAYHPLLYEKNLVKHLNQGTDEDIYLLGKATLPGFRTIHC
The series can be described thus: Inhibition of sialidase activity of Δ89 hST6Gal-I by CTP. Type of series: biochemical. The method, then: The compound cytidine-5′-triphosphate (CTP) is a known potent inhibitor of sialyltransferases (Scudder P R & Chantler E N BBA 660 (1981) 136-141). […] In the first phase of the experiment the sialylation of IgG4 MAB by Δ89 hST6Gal-I was performed to achieve a high content of G2+2SA (see Example 10). After 7 h of incubation the G2+2SA content was 94%. Subsequently, CTP was added to inhibit the sialidase activity of Δ89 hST6Gal-I (final concentration of CTP: 0.67 mM). At different times samples were taken and the content of G2+0SA, G2+1SA and G2+2SA was determined by mass spectrometry. […] After 72 h of incubation 73% of G2+2SA were still present.

The next series has as its system asialofetuin. Put plainly: Test for sialyltransferase enzymatic activity (transfer of sialic acid from CMP-9-fluoro-NANA to asialofetuin). Type of series: biochemical. Particulars: recombinant enzyme purified from HEK cells. How it is done: Asialofetuin (desialylated fetuin, Roche Applied Science) was used as acceptor and CMP-9-fluoro-NANA (CMP-9-fluoresceinyl-NeuAc) was used as donor substrate (Brossmer, R. & Gross H. J. (1994) Meth. Enzymol. 247, 177-193). Enzymatic activity of a sialyltransferase was determined by measuring the transfer of sialic acid from the donor compound to asialofetuin. The reaction mix (35 mM MES, pH 6.0, 0.035% TRITON™ X-100 (C16H26O2), 0.07% BSA) contained 2.5 μg of enzyme sample, 5 μL asialofetuin (20 mg/mL) and 2 μL CMP-9-fluoro-NANA (1.0 mg/mL) in a total volume of 51 μL. The reaction mix was incubated at 37° C. for 30 min. The reaction was stopped by the addition of 10 μL of the inhibitor CTP (10 mM). The reaction mix was loaded onto a PD10 desalting column equilibrated with 0.1 M Tris/HCl, pH 8.5. Fetuin was eluted from the column using the equilibration buffer. The fractions size was 1 mL. The concentration of formed fetuin was determined using a fluorescence spectrophotometer. Excitation wave length was 490 nm, emission was measured at 520 nm. Enzymatic activity was expressed as RFU (relative fluorescence unit). 10,000 RFU/μg is equivalent to a specific activity of 0.0839 nmol/μg×min.

A further series concerns IgG4 MAB. The series can be described thus: Sialylation of humanized monoclonal antibody IgG4 MAB using Δ89 hST6Gal-I, mass spectrometry. In kind it is biochemical. How it is done:
A highly galactosylated humanized monoclonal antibody IgG4 MAB was used in sialylation experiments. The reaction mixture contained IgG4 MAB (300 μg in 55 μL 35 mM sodium actetate/Tris buffer pH 7.0), the donor substrate CMP-NANA (150 μg in 50 μL water) and sialyltransferase (30 μg Δ89 hST6Gal-I in 20 mM potassium phosphate, 0.1 M NaCl, pH 6.5). The samples were incubated at 37° C. for a defined time. To stop the reaction the samples were frozen at −20° C. For mass analysis 100 μL denaturing buffer (6 M guanidinium chloride) and 30 μL TCEP (=tris(2-carboxyethyl)phosphine; 0.1 mM, diluted in denaturing buffer) were added to the samples and the samples were incubated at 37° C. for 1 h. The samples were buffered in electrospray medium [20% ACN (=acetonitrile), 1% FA (=formamide)] using pre-equilibrated Illustra™ Nap5-Columns (GE-Healthcare). Samples were analyzed by electrospray ionization mass spectrometry and the content of G2+0SA, G2+1SA and G2+2SA N-glycans was determined. A Micromass Q-Tof Ultima and a Synapt G2 HDMS device (Waters UK) were used, the software used was MassLynx V 4.1. To determine the kinetics of the sialylation the reaction was incubated up to 72 h.

In a further series the test system is IgG1 MAB G2+2SA. Put plainly: Sialidase activity on IgG1 MAB G2+2SA in the presence and absence of CMP. Particulars: for sialidase activity in the presence of CMP: CMP 10-fold molar excess, 37° C., pH 6.5, 125 μg enzyme/1,250 μg IgG1 MAB. Type of series: biochemical. How it is done: Cytidine monophosphate (5′-CMP, =CMP) is a product of the reaction catalyzed by sialyltransferase enzymes, generated in the course of the glycosyltransferase reaction from the co-substrate CMP-NANA. With incubation time of a sialylation reaction CMP accumulates in the reaction mixture.
To an amount of 1,250 μg (in 194 μL) highly sialylated IgG1 MAB according to Example 12 with an incubation period for sialylation of 8 h, 125 μg sialyltransferase variant (30 μg/300 μg IgG1 MAB) was added.
Different N-terminally truncated hST6Gal-I enzyme variants were tested for CMP-dependent sialidase activity: • Δ89 hST6Gal-I (Example 9) • Δ108 hST6Gal-I (Example 9) • Δ57 hST3Gal-I (obtained from R&D Systems)
Four different experiments were made using Δ89 hST6Gal-I (16.8 μL with 125 μg), Δ108 hST6Gal-I (17.3 μL with 125 μg), Δ57 hST3Gal-I (20.1 μL with 125 μg) and a negative control (no enzyme, 20.1 μL ultrapure water). The enzymes were tested for sialidase activity in the absence and presence of CMP (10-fold excess based on molarity). The concentrations were as shown as follows:
The samples were incubated at 37° C. in 20 mM sodium citrate, 35 mM Tris pH 6.5. Aliquots were taken as samples after different incubation times, and were analyzed.
To analyze the degree of sialylation of IgG1 MAB in the samples, 124 μL denaturing buffer (6 M Guanidinium chloride in water) and 30 μL TCEP (=tris(2-carboxyethyl)phosphine; 0.1 mM, diluted in denaturing buffer) were added to 76 μL (corresponding to 250 μg IgG1 MAB) and the sample was incubated at 37° C. for 1 h. After that the sample was buffered in electrospray medium (20% ACN (=acetonitrile), 1% FA (=formamide)) using pre-equilibrated ILLUSTRA™ NAP™5-Columns (GE-Healthcare). Subsequently the sample was analyzed by electrospray ionization mass spectrometry and the content of G2+0SA, G2+1SA and G2+2SA N-glycans was determined. A Synapt G2 HDMS device (Waters UK) was used, the software used was MassLynx V 4.1.

Series [2] concerns the target T3, CMP-dependent sialidase activity of Δ89 hST6Gal-I (Homo sapiens, UniProt P15907).
T3 construct: Erythropoietin signal peptide (Epo) (N, cleaved yes); AP spacer (N, cleaved yes); made in house; host or cells: HEK 293 cells (transient expression, secreted)
T3 sequence (P15907 90-406): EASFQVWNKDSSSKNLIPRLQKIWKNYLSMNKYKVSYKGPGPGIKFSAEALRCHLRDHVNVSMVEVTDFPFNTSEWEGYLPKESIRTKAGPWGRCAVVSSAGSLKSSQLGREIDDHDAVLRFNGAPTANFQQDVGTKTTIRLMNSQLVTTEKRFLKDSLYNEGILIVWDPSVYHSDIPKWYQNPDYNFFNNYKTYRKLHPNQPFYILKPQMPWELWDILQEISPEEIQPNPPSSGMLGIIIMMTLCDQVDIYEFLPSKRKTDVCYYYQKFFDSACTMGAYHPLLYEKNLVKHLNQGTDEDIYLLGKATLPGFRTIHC
Put plainly: Sialylation of IgG4 MAB using Δ89 hST6Gal-I in the presence of phosphatase enzymatic activity. Type of series: biochemical. Particulars: CMP degraded by dephosphorylating enzymes. The text has this:
Suppression of CMP-dependent sialidase activity of Δ89 hST6Gal-I was studied by continuous removal of CMP formed during the reaction.
In the experiments the enzymes (i) 5′-nucleotidase (EC 3.1.3.5) having a wide specificity for 5′-nucleotides, and (ii) alkaline phosphatase (EC 3.1.3.1) (both provided by commercial suppliers) were used. The particular 5′-nucleotidase used here is also known as ecto-5′-nucleotidase or CD73 (Cluster of Differentiation 73), in humans encoded by the NT5E gene. Both enzymes dephosphorylate CMP, i.e. catalyze hydrolysis of the phosphoester bond in CMP. In the experiments of this Example the enzymes were used to degrade CMP generated by the sialyltransferase reaction from the co-substrate CMP-NANA.
To 1,000 μg IgG4 MAB (182 μL) 500 μg CMP-NANA (3 mg/mL, 166.7 μL), 100 μg Δ89 hST6Gal-I (13.4 μL, 30 μg/300 μg IgG4 MAB) and different amounts of nucleotidase (Nu) and alkaline phosphatase (AP) were added. As Zn^2+ ions are essential for the activity of AP, these were added to a final concentration of 0.1 mM). The buffer used was 20 mM sodium acetate/Tris, pH 6.5. […]
After addition of the respective amounts of enzymes the samples were incubated at 37° C. […] Then the sample was analyzed by electrospray ionization mass spectrometry, and the content of G2+0SA, G2+1SA and G2+2SA N-glycans was determined. […]

With `Nc1ccn([C@@H]2O[C@H](CO)[C@@H](O)[C@H]2OP(=O)(O)O)c(=O)n1` [2′-CMP], the “inhibition of α-2,6-sialyltransferase” value in series [1] is listed as 40%.
Consider `Nc1ccn([C@@H]2O[C@H](CO)[C@@H](OP(=O)(O)O)[C@H]2O)c(=O)n1` [3′-CMP], for which, in series [1], the “inhibition of α-2,6-sialyltransferase” value is given as 39%.
On to `Nc1ccn([C@@H]2O[C@H](COP(=O)(O)OP(=O)(O)OP(=O)(O)O)[C@@H](O)[C@H]2O)c(=O)n1` [CTP, cytidine-5′-triphosphate], for which the “degradation of G2+2SA caused by the sialidase activity” value on Δ89 hST6Gal-I (CTP 0.67 mM, compared to inhibitor-free conditions) is “significantly reduced”. At Δ89 hST6Gal-I (after 72 h of incubation, CTP final concentration 0.67 mM added after 7 h), the “G2+2SA still present” value is 73%.

B1: Δ89 hST6Gal-I: human β-galactoside-α-2,6-sialyltransferase I variant with truncation deletion of the first 89 N-terminal amino acids (protein)
chain: EASFQVWNKDSSSKNLIPRLQKIWKNYLSMNKYKVSYKGPGPGIKFSAEALRCHLRDHVNVSMVEVTDFPFNTSEWEGYLPKESIRTKAGPWGRCAVVSSAGSLKSSQLGREIDDHDAVLRFNGAPTANFQQDVGTKTTIRLMNSQLVTTEKRFLKDSLYNEGILIVWDPSVYHSDIPKWYQNPDYNFFNNYKTYRKLHPNQPFYILKPQMPWELWDILQEISPEEIQPNPPSSGMLGIIIMMTLCDQVDIYEFLPSKRKTDVCYYYQKFFDSACTMGAYHPLLYEKNLVKHLNQGTDEDIYLLGKATLPGFRTIHC
modifications: delta89 truncation variant of hST6Gal-I
notes: human β-galactoside-α-2,6-sialyltransferase I variant with truncation deletion of the first 89 N-terminal amino acids
Turning to B1, the specific activity in the series with asialofetuin was 3.75 nmol/pg/min. Also, in the series on IgG4 MAB (after 2 h of incubation, 37° C., 30 μg enzyme/300 μg IgG4 MAB), the “content of the bi-sialylated form G2+2SA” value is listed as 88%. The “G2+2SA content” value in the series on IgG4 MAB (after 7 h of incubation, before CTP addition) is 94%. Besides, in the series with IgG4 MAB (after an incubation of 48 h, 37° C.), the “G2+1SA content” value came out at 71%. Further, in the series with IgG1 MAB G2+2SA, the “sialidase activity in the presence of CMP” value is listed as “showed a CMP-dependent sialidase activity”. Further, the “degradation of G2+2SA without CMP” value with IgG1 MAB G2+2SA (reaction mixture without CMP, incubation for 46 h) is reported as “no degradation”. For the same molecule, in series [2], the “intrinsic sialidase activity in the absence of CMP” value is recorded as “no intrinsic sialidase activity”.

B2: Δ108 hST6Gal-I: soluble human β-galactoside-α-2,6-sialyltransferase I variant lacking N-terminal amino acids from position 1 to 108 (protein)
chain: LQKIWKNYLSMNKYKVSYKGPGPGIKFSAEALRCHLRDHVNVSMVEVTDFPFNTSEWEGYLPKESIRTKAGPWGRCAVVSSAGSLKSSQLGREIDDHDAVLRFNGAPTANFQQDVGTKTTIRLMNSQLVTTEKRFLKDSLYNEGILIVWDPSVYHSDIPKWYQNPDYNFFNNYKTYRKLHPNQPFYILKPQMPWELWDILQEISPEEIQPNPPSSGMLGIIIMMTLCDQVDIYEFLPSKRKTDVCYYYQKFFDSACTMGAYHPLLYEKNLVKHLNQGTDEDIYLLGKATLPGFRTIHC
modifications: delta108 truncation variant of hST6Gal-I
In the case of B2, the specific activity in the series with asialofetuin is listed as more than 600 RFU/pg. The “sialidase activity in the presence of CMP” value in the series on IgG1 MAB G2+2SA is given as “did not show any sialidase activity”.
